The values that follow come from article PMC3500269.

First the molecules themselves.
B1: PMO-02916 (enzyme)
chain: HTIFQKVSVNGADQGQLKGIRAPANNNPVTDVMSSDIICNAVTMKDSNVLTVPAGAKVGHFWGHEIGGAAGPNDADNPIAASHKGPIMVYLAKVDNAATTGTSGLKWFKVAEAGLSNGKWAVDDLIANNGWSYFDMPTCIAPGQYLMRAELIALHNAGSQAGAQFYIGCAQINVTGGGSASPSNTVSFPGAYSASDPGILINIYGGSGKTDNGGKPYQIPGPALFTCPAGGSGGSSPAPATTASTPKPTSASAPKPVSTTASTPKPTNGSGSGTGAAHSTKCGGSKPAATTKASNPQPTNGGNSAVRAAALYGQCGGKGWTGPTSCASGTCKFSNDWYSQCLP
B2: PMO-01867 (enzyme)
chain: HAIFQQLWVDGVDYGSTCNRLPTSNSPVTNVGSRDVVCNAGTRGVSGKCPVKAGGTVTVEMHQQPGDRSCKSEAIGGAHWGPVQIYLSKVSDASTADGSSGGWFKIFSDAWSKKSGGRVGDDDNWGTRDLNACCGRMDVLIPKDLPSGDYLLRAEALALHTAGQSGGAQFYISCYQITVSGGGSANYATVKFPGAYRASDPGIQINIHAVVSNYVAPGPAVVAGGVTKQAGSGCIGCESTCKVGSSPSAVAPGGKPASGGSDGNAPEVAEPSGGEGSPSAPGACEVAAYGQCGGDQYSGCTQCASGYTCKAVSPPYYSQCAPTS
B3: PMO-08760 (enzyme)
chain: HATFQALWVDGADYGSQCARVPPSNSPVTDVTSNAMRCNTGTSPVAKKCPVKAGSTVTVEMHQQANDRSCSSEAIGGAHYGPVLVYMSKVSDAASADGSSGWFKIFEDTWAKKPSSSSGDDDFWGVKDLNSCCGKMQVKIPSDIPAGDYLLRAEVIALHTAASAGGAQLYMTCYQISVTGGGSATPATVSFPGAYKSSDPGILVDIHSAMSTYVAPGPAVYSGGSSKKAGSGCVGCESTCKVGSGPTGTASAVPVASTSAAAGGGGGGGSGGCSVAKYQQCGGTGYTGCTSCASGSTCSAVSPPYYSQCV
B4: PMO-03328 (enzyme)
chain: HYTFPKVWANSGTTADWQYVRRADNWQNNGFVDNVNSQQIRCFQSTHSPAQSTLSVAAGTTITYGAAPSVYHPGPMQFYLARVPDGQDINSWTGEGAVWFKIYHEQPTFGSQLTWSSNGKSSFPVKIPSCIKSGSYLLRAEHIGLHVAQSSGAAQFYISCAQLSITGGGSTEPGANYKVSFPGAYKASDPGILININYPVPTSYKNPGPSVFTC

The assay addresses cellobiose dehydrogenase IIA from N. crassa (N. crassa).
B1 gave a Specific activity of H2O2 production (Amplex Red/horseradish peroxidase assay) with CDH IIA (0.3 uM, 500 uM cellobiose) as reductant of 1.82 U g^-1. The same measure for B2: 1.07 U g^-1. With B3 the figure was 1.53 U g^-1; with B4, 15.5 U g^-1.
